{"source": "paper PMC3407194", "assay_in_all_cases": "primer extension with trap", "settings_in_all_cases": "Primer extension: 50 mM Tris-HCl pH 8.0, 80 mM KCl, 6 mM MgCl2, 1 mM DTT, 0.1 mg/ml BSA, room temperature, 1 nM duplex; filter binding: Tris-HCl pH 8.0, 80 mM …", "key": {"[1]": {"target": "T1, Ty3 RT (Ty3 retrotransposon) (UniProt Q99315)", "T1 sequence": "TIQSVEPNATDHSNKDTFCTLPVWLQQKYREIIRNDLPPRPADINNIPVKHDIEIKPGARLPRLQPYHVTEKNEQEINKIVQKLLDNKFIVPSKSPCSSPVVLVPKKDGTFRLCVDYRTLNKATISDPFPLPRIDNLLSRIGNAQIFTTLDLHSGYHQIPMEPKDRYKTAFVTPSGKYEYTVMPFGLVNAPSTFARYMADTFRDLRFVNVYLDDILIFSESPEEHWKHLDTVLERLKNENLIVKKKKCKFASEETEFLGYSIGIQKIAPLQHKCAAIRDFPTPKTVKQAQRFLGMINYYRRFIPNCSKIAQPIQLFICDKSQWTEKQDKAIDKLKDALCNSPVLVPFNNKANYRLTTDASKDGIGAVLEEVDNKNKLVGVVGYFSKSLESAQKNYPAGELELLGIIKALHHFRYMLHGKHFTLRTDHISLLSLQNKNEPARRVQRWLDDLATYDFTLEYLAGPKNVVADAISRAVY"}, "[2]": {"target": "HIV RT (HIV) (UniProt P04585+P04585)"}, "[3]": {"target": "MuLV RT (Moloney murine leukemia virus) (UniProt P03355)"}, "[4]": {"target": "T2, AMV RT (avian myeloblastosis virus) (UniProt Q83133+Q83133)", "T2 sequence 1": "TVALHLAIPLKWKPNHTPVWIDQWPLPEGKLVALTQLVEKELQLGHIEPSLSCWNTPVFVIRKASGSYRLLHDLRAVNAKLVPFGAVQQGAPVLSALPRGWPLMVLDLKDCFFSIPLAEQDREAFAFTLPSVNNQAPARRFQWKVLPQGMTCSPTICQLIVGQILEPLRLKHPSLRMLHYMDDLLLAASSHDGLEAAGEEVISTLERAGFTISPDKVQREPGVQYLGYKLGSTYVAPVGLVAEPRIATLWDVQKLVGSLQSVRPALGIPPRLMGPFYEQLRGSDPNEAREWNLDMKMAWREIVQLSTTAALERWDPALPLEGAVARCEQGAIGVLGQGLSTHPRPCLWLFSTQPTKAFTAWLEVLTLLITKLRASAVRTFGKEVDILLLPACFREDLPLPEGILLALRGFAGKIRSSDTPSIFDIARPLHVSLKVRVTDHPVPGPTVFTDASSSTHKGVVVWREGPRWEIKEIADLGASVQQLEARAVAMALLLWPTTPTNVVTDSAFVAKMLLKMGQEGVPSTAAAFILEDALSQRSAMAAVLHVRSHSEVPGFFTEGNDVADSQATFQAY", "T2 sequence 2": "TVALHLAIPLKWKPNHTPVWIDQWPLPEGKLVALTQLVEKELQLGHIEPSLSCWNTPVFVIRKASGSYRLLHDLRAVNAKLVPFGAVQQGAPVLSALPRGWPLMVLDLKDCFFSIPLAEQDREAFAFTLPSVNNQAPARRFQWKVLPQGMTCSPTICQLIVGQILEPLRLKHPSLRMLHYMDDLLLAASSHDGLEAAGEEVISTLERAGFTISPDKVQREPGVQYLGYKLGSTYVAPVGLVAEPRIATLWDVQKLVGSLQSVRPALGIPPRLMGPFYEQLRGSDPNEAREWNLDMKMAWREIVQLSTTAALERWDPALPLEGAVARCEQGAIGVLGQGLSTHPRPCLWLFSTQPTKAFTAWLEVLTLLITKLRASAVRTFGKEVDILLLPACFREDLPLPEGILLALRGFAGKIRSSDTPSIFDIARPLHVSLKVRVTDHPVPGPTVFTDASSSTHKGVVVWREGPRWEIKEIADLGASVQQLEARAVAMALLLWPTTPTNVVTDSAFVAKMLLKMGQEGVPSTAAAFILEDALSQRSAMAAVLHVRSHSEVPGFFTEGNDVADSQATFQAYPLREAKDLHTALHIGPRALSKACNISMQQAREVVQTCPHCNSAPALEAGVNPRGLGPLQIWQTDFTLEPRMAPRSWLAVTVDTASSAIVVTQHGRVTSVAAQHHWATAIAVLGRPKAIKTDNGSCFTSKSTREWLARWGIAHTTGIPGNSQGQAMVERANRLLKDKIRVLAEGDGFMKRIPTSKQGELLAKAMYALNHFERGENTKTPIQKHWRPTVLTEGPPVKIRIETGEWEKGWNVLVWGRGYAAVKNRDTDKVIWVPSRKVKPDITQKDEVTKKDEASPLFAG"}}, "data": [{"substance": "Random DNA", "values": [{"measurement": "Kd", "setting": "[1]", "value": 62, "unit": "nM"}, {"measurement": "Kd", "setting": "[2]", "value": 106, "unit": "nM"}, {"measurement": "Kd", "setting": "[3]", "value": 116, "unit": "nM"}, {"measurement": "Kd", "setting": "[4]", "value": 20, "unit": "nM"}]}]}
